Source: US11957698B2, “Synergistic combination of thermolysin and an antibacterial agent to reduce or eliminate bacterial biofilms from surfaces” (SMITH & NEPHEW, INC., priority 2017, dated 2024)

Assays:
Type in all cases: cell-based
S. aureus ATCC 29213 = assay: Minimum inhibitory concentration (MIC) in bacteria suspension; conditions: for MIC values: thermolysin, where present, kept constant at 50 μg/mL
Experimental: (§1) The concentration of thermolysin in the MIC experiments was kept constant at 50 μg/mL.

P. aeruginosa ATCC 27312 = assay: as above; conditions: for MIC values: thermolysin, where present, kept constant at 50 μg/mL
Experimental: as §1

[1] = system: P. aeruginosa ATCC 15442 bacterial biofilm; assay: In-vitro gram-negative bacterial biofilm study, 96 well plate, crystal violet staining; conditions: 18 hours at 37° C., FIG. 2
Experimental: An in-vitro assay was performed to determine the bacterial biofilm reduction capabilities of thermolysin and collagenase on gram-negative bacterial biofilms. In this assay P. aeruginosa ATCC 15442 was suspended in a growth media of 10% tryptic soy broth in PBS supplemented with 0.45% glucose (TSBG). The suspension was transferred to the wells of sterile 96 well plates and incubated for 18 hours at 37° C., then the media was changed with fresh media and incubated an additional 8 hours at 37° C. After formation of the bacterial biofilm, the growth media was replaced with solutions of thermolysin dissolved in TSBG growth media at various concentrations in some wells and replaced with solutions of collagenase dissolved in growth media at the same concentrations in other wells (enzyme concentrations were 0.00001 mg/mL, 0.0001 mg/mL, 0.001 mg/mL, 0.01 mg/mL, 0.1 mg/mL, 1.0 mg/mL, and 10 mg/mL). After 18 hours at 37° C., the remaining attached bacteria were quantified by removing the enzyme solutions (enzyme+TSBG growth media) and washing the plate thoroughly followed by crystal violet staining and recording the absorbance at 570 nm. A growth media control without enzyme was also tested. […] A decreased absorbance compared to the Control indicates a reduction of attached bacteria meaning a reduction of the bacterial biofilm occurred.

[2] = system: S. aureus ATCC 6538 bacterial biofilm; assay: In-vitro gram-positive bacterial biofilm study, 96 well plate, crystal violet staining; conditions: concentrations of 0.00001 mg/mL-10 mg/mL, 16 hours, FIG. 1
Experimental: An in-vitro assay was performed to determine the bacterial biofilm reduction capabilities of thermolysin and collagenase on gram-positive bacterial biofilms. In this assay, S. aureus ATCC 6538 was suspended in a growth media of tryptic soy broth supplemented with 0.25% glucose for optimal bacterial biofilm formation. The suspension was transferred to the wells of sterile 96 well plates and incubated for 22 hours at 37° C. with one change of media. After formation of the bacterial biofilm, the growth media was replaced with solutions of thermolysin dissolved in growth media at various concentrations in some wells and replaced with solutions of collagenase dissolved in growth media at the same concentrations in other wells (enzyme concentrations were 0.000001 mg/mL, 0.00001 mg/mL, 0.0001 mg/mL, 0.001 mg/mL, 0.01 mg/mL, 0.1 mg/mL, 1.0 mg/mL, and 10 mg/mL). After 16 hours, the remaining attached bacteria were quantified by aspirating the enzyme solutions (enzyme+growth media) and washing the plate thoroughly followed by crystal violet staining and recording the absorbance at 570 nm. A growth media control without enzyme was also tested. The crystal violet binds to negative charges on the remaining attached bacteria and the EPS. A decreased absorbance compared to the Control indicates a reduction of attached bacteria meaning a reduction of the bacterial biofilm occurred.

| Molecule | MIC values (S. aureus ATCC 29213; Rep 1) | MIC values (S. aureus ATCC 29213; Rep 2) | MIC values (P. aeruginosa ATCC 27312; Rep 1) | MIC values (P. aeruginosa ATCC 27312; Rep 2) | effect in reducing the bacterial biofilm (crystal violet absorbance at 570 nm vs growth media control) ([1]; concentrations of 0.00001 mg/mL-0.01 mg/mL) | effect in reducing the bacterial biofilm (crystal violet absorbance at 570 nm vs growth media control) ([1]; concentrations of 0.1 mg/mL-10 mg/mL) | effect of the addition of thermolysin on the MIC of gentamicin sulfate (S. aureus ATCC 29213; thermolysin 50 μg/mL) | effect of the addition of thermolysin on the MIC of gentamicin sulfate (P. aeruginosa ATCC 27312; thermolysin 50 μg/mL) | effect in reducing the bacterial biofilm (crystal violet absorbance at 570 nm vs growth media control) [2] |
| --- | --- | --- | --- | --- | --- | --- | --- | --- | --- |
| gentamicin sulfate | 1.6 µg/mL | 1.6 µg/mL | 50 µg/mL | 50 µg/mL |  |  |  |  |  |
| thermolysin (protein, UniProt P00800 233-548, looked up) Thermolysin: ITGTSTVGVGRGVLGDQKNINTTYSTYYYLQDNTRGNGIFTYDAKYRTTLPGSLWADADNQFFASYDAPAVDAHYYAGVTYDYYKNVHNRLSYDGNNAAIRSSVHYSQGYNNAFWNGSQMVYGDGDGQTFIPLSGGIDVVAHELTHAVTDYTAGLIYQNESGAINEAISDIFGTLVEFYANKNPDWEIGEDVYTPGISGDSLRSMSDPAKYGDPDHYSKRYTGTQDNGGVHINSGIINKAAYLISQGGTHYGVSVVGIGRDKLGKIFYRALTQYLTPTSNFSQLRAAAVQSATDLYGSTSQEVASVKQAFDAVGVK |  |  |  |  | little effect | no effect | did not affect the MIC | did not affect the MIC | had an effect in reducing the bacterial biofilm |
